Test results as given in patent US20160075771A1 (ZESTAGEN S A, published 2016).
One block for each binder: values may come before it.

Target: surface HSP90 on MDAMB453 breast cancer cells (human, UniProt P07900 2-732)
Experiment: cell-based or functional assay

inhibition of wound closure, MDAMB453 in vitro wound healing assay, 200 µg/ml, 48 hours: 55.3%
B1: monoclonal antibody (mAb) 4C5 (antibody, V domains shown)
VL: ELVMTQSPSSMYASLGERVTITCKASQDINSYLSWFQQKPGKSPKTLIYRANRLVDGVPSRFSGSGSGQDYSLTINSLEYEDMGIYYCLQYDEFPRLTFGAGTRLELKR

inhibition of wound closure, MDAMB453 in vitro wound healing assay, 200 µg/ml, 48 hours: 51.2%
B2: human-mouse chimeric 4C5 antibody (antibody, V domains shown)
VL: B1 VL

inhibition of wound closure, MDAMB453 in vitro wound healing assay, 200 µg/ml, 48 hours: 46.5%
B3: recombinant 4C5 (antibody, V domains shown)
VL: B1 VL
